Source: patent publication US20200405868A1, “GEL-FORMING POLYPEPTIDES” (priority 2018, published 2020)
“Also recorded” adds a separate entry of the source. Where no end group is shown, it is not given here. [ ]: non-standard residue; d: D form.

Assay: Compound gel-forming ability in water (visual inspection, tube tapping assay, tilted tube assay);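 also: peptides mixed with de-ionized water at about 22-25 °C, judged after 20 min by eye plus tube tapping (10 taps, moves counted) and 90° tilt mobility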
Assay type: physicochemical
Details: for gel formation at 11% w/w: 11% w/w in water; for gel formation at 20% w/w: 20% w/w in water; for gel formation in aqueous solution, 20% / propensity to form gels, wild-type counterparts, 20%: 20% w/w; for Physical property at 11% w/w: Table 1, 11% w/w in aqueous solution, room temperature; for gel formation in aqueous solution, 11% / propensity to form gels, wild-type counterparts, 11%: 11% w/w; for gel formation at 6% w/w: 6% w/w in water; for gel formation in aqueous solution, 6% / propensity to form gels, wild-type counterparts, 6%: 6% w/w

| Substance | gel formation at 11% w/w | gel formation at 20% w/w | gel formation in aqueous solution, 20% (Table 3) | propensity to form gels, wild-type counterparts, 20% (Table 5) | Physical property at 11% w/w | gel formation in aqueous solution, 11% (Table 3) | propensity to form gels, wild-type counterparts, 11% (Table 5) | gel formation at 6% w/w | gel formation in aqueous solution, 6% (Table 3) | propensity to form gels, wild-type counterparts, 6% (Table 5) | gel formation at the selected concentration (selected concentration (i.e., at 30%, 20%, 11%, or 6% w/w)) | gel formation at 3% w/w (3% w/w in water) | gel formation in aqueous solution, 3% (Table 3, 3% w/w) | propensity to form gels, wild-type counterparts, 3% (Table 5, 3% w/w) |
| --- | --- | --- | --- | --- | --- | --- | --- | --- | --- | --- | --- | --- | --- | --- |
| SDAAVDTSSEITTKDLKEKKEVVEEAEN-NH2 (ends and bridges not checked) [SEQ ID NO:13, reference compound] | form self-assembling gels; also recorded: liquid gel | semisolid gel | SS (SS for semisolid gel) | SS (An ability to form semisolid gel is represented by an SS) |  |  |  |  |  |  |  |  |  |  |
| SLRRSSCFGGRMDRIGAQSGLGCNSFRY-NH2 [SEQ ID NO:41, reference compound] | does not form gel | does not form gel | AS/IS (AS/IS for aqueous solution or insoluble) | AS/IS | AS/IS | AS/IS (AS/IS for aqueous solution or insoluble) | AS/IS |  |  |  |  |  |  |  |
| SVSEIQLMHNLGKHLNSMERVEWLRKKLQDVHNF [SEQ ID NO:25, reference compound] | does not form gel |  |  |  | AS/IS | AS/IS (AS/IS for aqueous solution or insoluble) | AS/IS | does not form gel | AS/IS (AS/IS for aqueous solution or insoluble) | AS/IS |  |  |  |  |
| SYSMEHFRWGKPVGKKRRPVKVYP-OH [SEQ ID NO:33, reference compound] | does not form gel | does not form gel | AS/IS (AS/IS for aqueous solution or insoluble) | AS/IS | AS/IS | AS/IS (AS/IS for aqueous solution or insoluble) | AS/IS |  |  |  |  |  |  |  |
| VGVAPG-NH2 [SEQ ID NO:45, reference compound] |  |  |  |  | AS/IS | AS/IS (AS/IS for aqueous solution or insoluble) | AS/IS |  | AS/IS (AS/IS for aqueous solution or insoluble) | AS/IS |  |  |  |  |
| VKVKVKVKV(D-Pro)PTKVKVKVKV-miniPEG-RPKPQQFFGLM-NH2 [SEQ ID NO:286] |  |  |  |  |  | AS/IS (AS/IS for aqueous solution or insoluble) |  |  | AS/IS (AS/IS for aqueous solution or insoluble) |  |  |  |  |  |
| Y-(D-Ala)-GF(D-Leu)-NH2 [SEQ ID NO:22, reference compound] | do not form gels |  |  |  | AS/IS | AS/IS (AS/IS for aqueous solution or insoluble) | AS/IS | do not form gels | AS/IS (AS/IS for aqueous solution or insoluble) | AS/IS |  |  |  |  |
| Y-(D-Met)-FHLMD-NH2 [SEQ ID NO:21, reference compound] | do not form gels |  |  |  | AS/IS | AS/IS (AS/IS for aqueous solution or insoluble) | AS/IS | do not form gels | AS/IS (AS/IS for aqueous solution or insoluble) | AS/IS |  |  |  |  |
| YADAIFTNSYRKVLGQLSARKLLQDIMSR-NH2 [SEQ ID NO:35, reference compound] | does not form gel | does not form gel | AS/IS (AS/IS for aqueous solution or insoluble) | AS/IS | AS/IS | AS/IS (AS/IS for aqueous solution or insoluble) | AS/IS |  |  |  |  |  |  |  |
| YIGSR-NH2 [SEQ ID NO:39, reference compound] |  |  |  |  | AS/IS | AS/IS (AS/IS for aqueous solution or insoluble) | AS/IS |  |  |  |  |  |  |  |
| YNWNSFGLRF-NH2 [SEQ ID NO:6, reference compound] | form self-assembling gels; also recorded: semisolid gel |  |  |  | SS (SS for semisolid gel) | SS (SS for semisolid gel) | SS (An ability to form semisolid gel is represented by an SS) | semisolid gel | SS (SS for semisolid gel) | SS (An ability to form semisolid gel is represented by an SS) |  |  |  |  |
| YRQSMNNFQGLRSFGCRFGTCTVQKLAHQIYQFTDKDKDNVAPRSKISPQGY-NH2 [SEQ ID NO:2, reference compound] |  |  |  |  | SS (SS for semisolid gel) | SS (SS for semisolid gel) |  |  | AS/IS (AS/IS for aqueous solution or insoluble) |  |  |  |  |  |
| YRSRKYSSWY-NH2 [SEQ ID NO:46, reference compound] |  |  |  |  | AS/IS | AS/IS (AS/IS for aqueous solution or insoluble) | AS/IS |  |  |  |  |  |  |  |
| YVMGHFRWDRF-NH2 [SEQ ID NO:64, reference compound] | form self-assembling gels; also recorded: liquid gel |  |  |  |  |  |  | stay soluble | AS/IS (AS/IS for aqueous solution or insoluble) | AS/IS | only form aqueous solution or are insoluble |  |  |  |
| [dF][dF]W[dR] [SEQ ID NO:7, reference compound] | form self-assembling gels; also recorded: semisolid gel |  |  |  | SS (SS for semisolid gel) | SS (SS for semisolid gel) | SS (An ability to form semisolid gel is represented by an SS) | semisolid gel | SS (SS for semisolid gel) | SS (An ability to form semisolid gel is represented by an SS) |  | semisolid gel | SS (SS for semisolid gel) | SS (An ability to form semisolid gel is represented by an SS) |
| enfuvirtide |  |  |  |  | AS/IS |  |  |  |  |  |  |  |  |  |
| miniPEG-K(PAL)GCRFGTCTVQKLAHQIYQFTDKDVAPRSKISP(D-Gln)GY-NH2 [SEQ ID NO:48] | semisolid gel |  |  |  | SS (SS for semisolid gel) |  |  |  |  |  |  |  |  |  |
